Several values for one entry are separate records, joined by “and”; a condition that tells them apart may be missing. Identical values can stand only once. Like-named read-outs stand apart in the source and are kept apart here.
What was measured:
Human MMP9 [1] = target: T1, Human MMP9 (human, UniProt P14780 20-707); assay: ELISA
T1 construct: also called human matrix metalloproteinase-9; gelatinase-B

Cynomolgus monkey MMP9 [2] = target: T2, Cynomolgus monkey MMP9 (cynomolgus monkey, UniProt A0A2K5UU71 20-706); assay: ELISA
T2 construct: also called cynomolgus MMP9

Rat MMP9 [3] = target: T3, Rat MMP9 (rat, UniProt P50282 20-708, limits assumed); assay: ELISA
Human MMP9 [4] = target: T1, Human MMP9; assay: SPR
Human MMP9 [5] = target: T1, Human MMP9; assay: ELISA; remark: listed apart in the source
Cynomolgus monkey MMP9 [6] = target: T2, Cynomolgus monkey MMP9; assay: ELISA; remark: listed apart in the source
Rat MMP9 [7] = target: T3, Rat MMP9; assay: ELISA; remark: listed apart in the source
Human MMP9 [8] = target: T1, Human MMP9; assay: ELISA; remark: listed apart in the source
Cynomolgus monkey MMP9 [9] = target: T2, Cynomolgus monkey MMP9; assay: ELISA; remark: listed apart in the source
Mouse MMP9 [10] = target: T4, Mouse MMP9 (mouse, UniProt P41245 20-730, limits assumed); assay: ELISA
T4 construct: also called murine MMP9; wild-type mouse MMP9

Rat MMP9 [11] = target: T3, Rat MMP9; assay: ELISA; remark: listed apart in the source
Human MMP9 [12] = target: T1, Human MMP9; assay: cell-based or functional assay
Human MMP9 [13] = target: T1, Human MMP9; assay: cell-based or functional assay; remark: listed apart in the source
Cynomolgus monkey MMP9 [14] = target: T2, Cynomolgus monkey MMP9; assay: cell-based or functional assay
Mouse MMP9 [15] = target: T4, Mouse MMP9; assay: cell-based or functional assay
Rat MMP9 [16] = target: T3, Rat MMP9; assay: cell-based or functional assay
Human MMP9 [17] = target: T1, Human MMP9; assay: direct binding and SPR assays
Mouse MMP9 [18] = target: T4, Mouse MMP9; assay: ELISA; remark: listed apart in the source

T3 sequence (P50282 20-708 limits assumed): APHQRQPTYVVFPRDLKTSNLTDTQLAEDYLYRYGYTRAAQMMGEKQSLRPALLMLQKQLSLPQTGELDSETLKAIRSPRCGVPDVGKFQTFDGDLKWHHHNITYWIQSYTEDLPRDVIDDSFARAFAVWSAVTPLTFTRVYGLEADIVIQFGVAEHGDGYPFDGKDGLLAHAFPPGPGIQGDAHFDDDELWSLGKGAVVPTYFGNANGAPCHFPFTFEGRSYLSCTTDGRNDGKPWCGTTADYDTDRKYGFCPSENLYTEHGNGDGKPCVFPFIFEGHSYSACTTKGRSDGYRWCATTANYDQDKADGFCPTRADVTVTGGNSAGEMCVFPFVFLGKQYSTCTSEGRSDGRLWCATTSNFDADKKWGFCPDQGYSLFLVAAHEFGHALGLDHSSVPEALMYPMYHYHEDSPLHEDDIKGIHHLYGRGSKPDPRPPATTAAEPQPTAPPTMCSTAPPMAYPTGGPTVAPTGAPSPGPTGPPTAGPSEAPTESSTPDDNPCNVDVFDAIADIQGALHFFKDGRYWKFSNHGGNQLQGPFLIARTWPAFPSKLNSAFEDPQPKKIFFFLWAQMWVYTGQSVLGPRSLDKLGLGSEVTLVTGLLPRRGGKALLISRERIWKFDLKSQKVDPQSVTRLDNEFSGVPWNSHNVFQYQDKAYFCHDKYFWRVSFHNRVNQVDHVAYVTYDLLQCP
T2 sequence (A0A2K5UU71 entry or part of it): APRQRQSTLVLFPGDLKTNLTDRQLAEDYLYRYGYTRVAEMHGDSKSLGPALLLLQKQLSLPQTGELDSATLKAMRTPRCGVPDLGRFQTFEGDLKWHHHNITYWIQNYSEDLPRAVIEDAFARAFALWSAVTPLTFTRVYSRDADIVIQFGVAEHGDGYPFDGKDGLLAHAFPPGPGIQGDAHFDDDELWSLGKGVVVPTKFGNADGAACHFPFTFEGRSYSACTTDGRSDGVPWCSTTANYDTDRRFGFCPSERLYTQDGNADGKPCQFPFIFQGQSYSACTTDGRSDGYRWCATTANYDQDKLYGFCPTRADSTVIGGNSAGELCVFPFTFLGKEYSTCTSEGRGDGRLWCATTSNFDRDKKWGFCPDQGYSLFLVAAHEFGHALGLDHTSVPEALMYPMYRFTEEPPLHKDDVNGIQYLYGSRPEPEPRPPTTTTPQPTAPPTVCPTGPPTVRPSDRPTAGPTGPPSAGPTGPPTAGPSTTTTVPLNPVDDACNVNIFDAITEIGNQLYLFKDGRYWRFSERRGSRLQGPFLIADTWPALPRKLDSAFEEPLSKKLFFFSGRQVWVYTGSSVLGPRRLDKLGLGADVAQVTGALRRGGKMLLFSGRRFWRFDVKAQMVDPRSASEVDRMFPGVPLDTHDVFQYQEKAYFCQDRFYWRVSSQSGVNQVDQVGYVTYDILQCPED
T4 sequence (P41245 20-730 limits assumed): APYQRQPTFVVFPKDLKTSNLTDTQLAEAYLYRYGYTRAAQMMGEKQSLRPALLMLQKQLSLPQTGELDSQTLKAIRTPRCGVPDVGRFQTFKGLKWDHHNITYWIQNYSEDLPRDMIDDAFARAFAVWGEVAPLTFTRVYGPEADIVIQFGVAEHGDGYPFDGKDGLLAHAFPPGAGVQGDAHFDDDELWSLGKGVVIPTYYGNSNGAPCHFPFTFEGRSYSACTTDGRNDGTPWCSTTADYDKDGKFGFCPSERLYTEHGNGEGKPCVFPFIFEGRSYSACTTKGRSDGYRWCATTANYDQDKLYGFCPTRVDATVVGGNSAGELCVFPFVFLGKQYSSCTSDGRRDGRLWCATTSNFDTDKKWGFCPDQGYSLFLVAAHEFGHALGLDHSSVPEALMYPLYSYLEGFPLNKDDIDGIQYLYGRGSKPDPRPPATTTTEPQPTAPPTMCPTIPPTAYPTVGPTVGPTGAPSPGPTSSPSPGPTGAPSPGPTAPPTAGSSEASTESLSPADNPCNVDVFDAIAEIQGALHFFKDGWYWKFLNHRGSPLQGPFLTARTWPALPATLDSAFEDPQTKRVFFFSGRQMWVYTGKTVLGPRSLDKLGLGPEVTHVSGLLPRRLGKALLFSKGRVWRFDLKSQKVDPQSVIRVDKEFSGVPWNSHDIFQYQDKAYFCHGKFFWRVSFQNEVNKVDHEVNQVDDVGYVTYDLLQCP
T1 sequence (P14780 20-707 Q279R/R574P): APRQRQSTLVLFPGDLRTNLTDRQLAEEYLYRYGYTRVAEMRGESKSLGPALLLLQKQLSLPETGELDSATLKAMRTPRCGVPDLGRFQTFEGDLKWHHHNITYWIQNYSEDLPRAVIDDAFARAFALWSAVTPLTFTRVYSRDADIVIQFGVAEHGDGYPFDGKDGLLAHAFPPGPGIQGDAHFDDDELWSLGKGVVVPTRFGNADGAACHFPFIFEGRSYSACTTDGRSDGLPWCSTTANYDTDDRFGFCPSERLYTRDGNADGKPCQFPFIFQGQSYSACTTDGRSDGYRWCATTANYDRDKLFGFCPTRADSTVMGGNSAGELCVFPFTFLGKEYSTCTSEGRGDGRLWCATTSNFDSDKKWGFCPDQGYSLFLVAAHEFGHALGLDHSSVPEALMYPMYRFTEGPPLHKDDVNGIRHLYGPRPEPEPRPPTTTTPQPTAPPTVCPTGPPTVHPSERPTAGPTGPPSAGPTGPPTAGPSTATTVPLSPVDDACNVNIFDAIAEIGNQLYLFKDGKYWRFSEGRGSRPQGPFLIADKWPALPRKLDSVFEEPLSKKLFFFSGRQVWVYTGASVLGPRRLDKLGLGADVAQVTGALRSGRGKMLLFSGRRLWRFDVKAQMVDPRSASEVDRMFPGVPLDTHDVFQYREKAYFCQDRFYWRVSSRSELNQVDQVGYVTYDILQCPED

Binder	Kd (Human MMP9 [1]) [nM]	Kd (Cynomolgus monkey MMP9 [2]) [nM]	Kd (Rat MMP9 [3]) [nM]	Kd (Human MMP9 [4]) [nM]	Kd (Human MMP9 [5]) [nM]	Kd (Cynomolgus monkey MMP9 [6]) [nM]	Kd (Rat MMP9 [7]) [nM]	Kd (Human MMP9 [8]) [nM]	Kd (Cynomolgus monkey MMP9 [9]) [nM]	Kd (Mouse MMP9 [10]) [nM]	Kd (Rat MMP9 [11]) [nM]	IC50, MMP9 enzymatic assay under steady-state conditions (Human MMP9 [12])	Activity Assay, Human MMP9 IC50 (Human MMP9 [13]) [nM]	Activity Assay, Cynomolgus monkey MMP9 IC50 (Cynomolgus monkey MMP9 [14]) [nM]	Activity Assay, Mouse MMP9 IC50 (Mouse MMP9 [15]) [nM]	Activity Assay, Rat MMP9 IC50 (Rat MMP9 [16]) [nM]	Kd (Human MMP9 [17]) [nM]	Kd (Mouse MMP9 [18]) [nM]
AB0045 (antibody, human IgG4 S228P, kappa, V domains shown, Humanized AB0041, modified IgG4 (S241P); also called humanized variant anti-MMP9 antibody; VH3/Vk4) VH: QVQLQESGPGLVKPSETLSLTCTVSGFSLLSYGVHWVRQPPGKGLEWLGVIWTGGTTNYNSALMSRFTISKDDSKNTVYLKMNSLKTEDTAIYYCARYYYGMDYWGQGTLVTVSS VL: DIQMTQSPSSLSASVGDRVTITCKASQDVRNTVAWYQQKPGKAPKLLIYSSSYRNTGVPDRFSGSGSGTDFTLTISSLQAEDVAVYYCQQHYITPYTFGGGTKVEIKR	< 0.4	< 0.4	< 0.4	0.0088	0.168	0.082	0.311	0.168	0.082	> 100	0.311	0.148 nM to 0.161 nM (2×) and 0.158 nM	0.691	0.194	> 100	8.23	~0.001	–
AB0041 (antibody, mouse IgG2b, kappa, V domains shown, Mouse IgG2b/kappa from hybridoma; derived by aligning the variable region entries to the full chains; also called mouse monoclonal anti-MMP9 antibody (AB0041)) VH: QVQLKESGPGLVAPSQSLSITCTVSGFSLLSYGVHWVRQPPGKGLEWLGVIWTGGTTNYNSALMSRLSISKDDSKSQVFLKMNSLQTDDTAIYYCARYYYGMDYWGQGTSVTVSS VL: DIVMTQSHKFMSTSVGDRVSITCKASQDVRNTVAWYQQKTGQSPKLLIYSSSYRNTGVPDRFTGSGSGTDFTFTISSVQAEDLAVYFCQQHYITPYTFGGGTKLEIKR	< 0.4	< 0.4	< 0.4	0.0004	0.133	0.145	0.332	0.133	0.145	> 100	0.332	–	0.569	0.189	> 100	2.78	–	> 100
AB0046 (antibody, mouse IgG1, kappa, V domains shown, Mouse IgG1/kappa raised in MMP9-knockout mice against mouse MMP9; also called surrogate mouse antibody AB0046) VH: QVQLQQPGSVLVRPGASVKLSCTASGYTFTSYWMNWVKQRPGQGLEWIGEIYPISGRTNYNEKFKVKATLTVDTSSSTAYMDLNSLTSEDSAVYYCARSRANWDDYWGQGTTLTVSS VL: DIQMTQTTSSLSASLGDRVTISCSASQGISNYLNWYQQKPDGTFKLLIYYTSILHSGVPSRFSGSGSGTDYSLTISNLEPEDIATYYCQQYGWLPRTFGGGTKLEIKR	–	–	–	–	–	–	–	> 100	–	0.218	–	–	> 100	> 100	0.352	> 100	–	–
